In paper PMC3505971 (Nucleic Acids Research, 2012):

Legend:
Sa Hfq [1] = target: T1, Sa Hfq (Staphylococcus aureus, UniProt A0A0H3JV59 1-77); experiment: fluorescence polarization
Ec Hfq = Ec Hfq (Escherichia coli, UniProt P0A6X3 1-102); experiment: fluorescence polarization
Sa Hfq(K33A) = Sa Hfq(K33A) (Staphylococcus aureus, UniProt A0A0H3JV59 1-77, K33A); experiment: fluorescence polarization
Sa Hfq [2] = target: T1, Sa Hfq; experiment: fluorescence polarization; remark: listed apart in the source
crystal structure = target: the molecule itself; experiment: crystal structure

| Binder | Kd (Sa Hfq [1]) [nM] | Kd (Sa Hfq(K33A)) [nM] | also measured |
| --- | --- | --- | --- |
| AAAAAAAAAAAAAAAAAAAAAAAAAAA (ssRNA) [A27] | 109 ± 13 | – | Kd (Ec Hfq): 0.85 ± 0.08 nM |
| AAAAAAA (ssRNA) [(AA)3A = A7] | 19.5 ± 6.4 | 406 ± 112 | – |
| AAAAAAG (ssRNA) [A6G] | – | – | binding result (Sa Hfq [2]): binds |
| ACACACA (ssRNA) [(AC)3A] | 5.8 ± 7.3 | – | – |
| AAAAAAAAAAAAAAAA (ssRNA) [A16] | 4.2 ± 0.5 | – | Kd (Ec Hfq): 0.4 ± 0.5 nM |
| Staphylococcus aureus Hfq (natural protein) MIANENIQDKALENFKANQTEVTVFFLNGFQMKGVIEEYDKYVVSLNSQGKQHLIYKHAISTYTVETEGQASTESEE | – | – | stoichiometry N (crystal structure): 6 |
| GGAGGA (ssRNA) [(GGA)2] | 450 | – | – |
| GGAGGAGGAGGAGGAGGAGGAGGAGGA (ssRNA) [(GGA)9] | 350 | – | – |
| UUUUUU (ssRNA) [U6] | 69.8 ± 7 | 72.7 ± 21.9 | – |
| AUAUAUA (ssRNA) [(AU)3A] | 2.7 ± 2.3 | 309 ± 40.2 | – |
| AUUUUUG (ssRNA) [AU5G] | – | – | binding result (Sa Hfq [2]): binds |
| AGAGAGA (ssRNA) [(AG)3A] | 3.5 ± 0.3 | 11.9 ± 3 | – |
